This is an account of results in paper PMC10864275, “Binding kinetics drive G protein subtype selectivity at the β1-adrenergic receptor” (Nature Communications, 2024).

Several values for one entry are separate records, joined by “and”; a condition that tells them apart may be missing. Identical values can stand only once.

The target of test [1] is avi-β1AR-E (turkey β1-adrenergic receptor, minimally thermostabilised construct with E130 restored, N-terminal biotinylated avi-tag) (turkey) (UniProt P07700). The test can be described thus: BLI; biotinylated avi-tagged receptor in LMNG immobilised on streptavidin biosensors; 500 μM salbutamol (partial agonist); mini-Gs in solution at a single concentration (1 or 2 μM); 20 mM TrisHCl pH 8.0, 150 mM NaCl, 15 mM MgCl2, 0.02% LMNG, 0.1% BSA; 25 °C; 1:1 monophasic local partial fit; one of n = 3 tips.

The target in test [2] is avi-β1AR-W (turkey β1-adrenergic receptor β1AR-MetΔ5, thermostabilised with E130W, N-terminal biotinylated avi-tag) (turkey) (UniProt P07700). Described as above.
Test [3] addresses avi-β1AR-E (turkey β1-adrenergic receptor, minimally thermostabilised construct with E130 restored, N-terminal biotinylated avi-tag) (turkey) (UniProt P07700). The test can be described thus: BLI; biotinylated avi-tagged receptor in LMNG immobilised on streptavidin biosensors; 500 μM isoprenaline; mini-G in solution at a single concentration (0.125-4 μM); 20 mM TrisHCl pH 8.0, 150 mM NaCl, 15 mM MgCl2, 0.02% LMNG, 0.1% BSA; 25 °C; 1:1 monophasic local partial fit; one of n = 3 tips.

Test [4] has as its target avi-β1AR-W (turkey β1-adrenergic receptor β1AR-MetΔ5, thermostabilised with E130W, N-terminal biotinylated avi-tag) (turkey) (UniProt P07700). Described as above.
In test [5] the target is avi-β1AR-E (turkey β1-adrenergic receptor, minimally thermostabilised construct with E130 restored, N-terminal biotinylated avi-tag) (turkey) (UniProt P07700). The test can be described thus: BLI; biotinylated avi-tagged receptor in LMNG immobilised on streptavidin biosensors; 500 μM xamoterol (partial agonist); mini-Gs in solution at 4 μM (column 4); 20 mM TrisHCl pH 8.0, 150 mM NaCl, 15 mM MgCl2, 0.02% LMNG, 0.1% BSA; 25 °C; 1:1 monophasic local partial fit; each row one of n = ….

For test [6], the target named is avi-β1AR-W (turkey β1-adrenergic receptor β1AR-MetΔ5, thermostabilised with E130W, N-terminal biotinylated avi-tag) (turkey) (UniProt P07700). The test is described as above.

avi-β1AR-W (turkey β1-adrenergic receptor β1AR-MetΔ5, thermostabilised with E130W, N-terminal biotinylated avi-tag) (turkey), sequence (P07700 other isoform, or with tags, fused parts or gaps with the stated changes): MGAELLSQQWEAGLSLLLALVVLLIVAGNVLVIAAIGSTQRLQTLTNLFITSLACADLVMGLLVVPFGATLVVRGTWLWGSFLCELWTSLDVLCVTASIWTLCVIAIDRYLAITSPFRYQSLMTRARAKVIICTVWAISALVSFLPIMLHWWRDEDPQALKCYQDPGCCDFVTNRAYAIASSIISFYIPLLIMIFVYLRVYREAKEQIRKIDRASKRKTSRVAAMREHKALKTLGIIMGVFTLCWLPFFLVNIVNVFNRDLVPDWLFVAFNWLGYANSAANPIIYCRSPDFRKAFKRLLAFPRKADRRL
avi-β1AR-E (turkey β1-adrenergic receptor, minimally thermostabilised construct with E130 restored, N-terminal biotinylated avi-tag) (turkey), sequence (P07700 other isoform, or with tags, fused parts or gaps with the stated changes): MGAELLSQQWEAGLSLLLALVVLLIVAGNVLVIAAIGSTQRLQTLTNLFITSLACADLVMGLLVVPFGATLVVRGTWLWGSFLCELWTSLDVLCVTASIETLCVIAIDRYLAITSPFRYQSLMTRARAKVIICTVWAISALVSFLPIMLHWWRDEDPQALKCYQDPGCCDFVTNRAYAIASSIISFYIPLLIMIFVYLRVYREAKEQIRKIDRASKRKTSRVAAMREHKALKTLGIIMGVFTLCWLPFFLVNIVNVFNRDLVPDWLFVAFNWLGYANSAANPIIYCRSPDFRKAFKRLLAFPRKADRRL

mini-Gs 393 C96A (domain or fragment): the Kd in test [1] is 977 nM and 962 nM and 946 nM; in test [2] it was 1440 nM; in test [3], 42.9 nM and 46.3 nM and 51.2 nM; in test [4] it was 173 nM and 170 nM and 141 nM; in test [5], 2370 nM and 2320 nM and 2400 nM; in test [6], 3060 nM and 2950 nM and 2900 nM.
